The text below walks through data of patent US20260184766A1 (priority 2022, published 2026).

For data set [1], the system named is SARS CoV-2 "South African" B.1.351 variant Spike protein.
In data set [2] the test system is pseudotyped virus carrying B.1.351 or "SA" variant (beta lineage) spike. Type of data set: cell-based, SARS-CoV-2. To be noted: read-out: Virus Neutralization Pseudovirus (nM) Beta.

Take “DYTCPDGYEHTCGCIGGCGCKRSACIGALCCQASLGGWLSDMP [G3-C]”: the “stability conferred to the knob sequence by N- and C-terminal residues, in words” value (from here on “stability conferred to the knob sequence”) in data set [1] was “improved stability”.

For the sequence “GMTCPDGYEHTCGCIGGCGCKRSACIGALCCQASLGGWLSDRS [G3-Z]”, in data set [1], the “stability conferred to the knob sequence” value was “improved stability”.

As to “HWTCPDGYEHTCGCIGGCGCKRSACIGALCCQASLGGWLSDSF [2G3 knob HWSF]”, the “stability conferred to the knob sequence” value in data set [1] was “improved stability”. Also, in data set [2], the EC50 worked out at 7.82 ± 1.59 nM.

For the sequence “ISTCPDGYEHTCGCIGGCGCKRSACIGALCCQASLGGWLSDTV [2G3 knob ISTV]”, in data set [1], the “stability conferred to the knob sequence” value is “improved stability”. The EC50 in data set [2] worked out at 20.9 ± 7.95 nM.

On to “LVTCPDGYEHTCGCIGGCGCKRSACIGALCCQASLGGWLSDIP [G3-G]”, for which, in data set [1], the “stability conferred to the knob sequence” value was “improved stability”.

Regarding “SVTCPDGYEHTCGCIGGCGCKRSACIGALCCQASLGGWLSDYI [G3-E]”, the “stability conferred to the knob sequence” value in data set [1] is listed as “improved stability”.

With “TCPDGYEHTCGCIGGCGCKRSACIGALCCQASLGGWLSD [2G3 Knob]”, the EC50 in data set [2] was 15.7 ± 2.61 nM.
